From the DeepSol protein solubility set

Test: soluble on expression in E. coli; label from the status in PepcDB or PDB records

Sequence | soluble on expression in E. coli
MAACGNPSAAVKFERLPTFAEPTHYNVRLSPCLNQFSFDGHATIDVTIKEATDVLKVHAQSLLIQSVSLITQPGDASKSLETSYDDKLNILTIKLPTTMQPQKVQLDFKFVGELNDKMRGFYRSQYKDKNGTEKFLASTQFESTYARYAFPCFDEPIYKATFDVTLEVENHLTALSNMNVISETPTADGKRKAVTFATSPKMSSYLVAFAVGELEYISAQTKSGVEMRVYTVPGKKEQGQYSLDLSVKCIDWYNEWFDIKYPLPKCDLIAIPDFSMGAMENWGLVTYREIALLVDPGVTSTRQKSRVALVVAHELAHLWFGNLVTMKWWTDLWLKEGFASFMEYMFVGANCPEFKIWLHFLNDELASGMGLDALRNSHPIEVEIDNPNELDEIYDSITYAKSNSVNRMLCYYLSEPVFQKGLRLYLKRFQYSNAVTQDLWTALSEASGQNVNELMSGWTQQMGFPVLKVSQRQDGNNRILTVEQRRFISDGGEDPKNSQWQVPITVAVGSSPSDVKARFLLKEKQQEFTIEGVAPGEWVKLNSGTTGFYRVEYSDEMLTAMLPDIASRRMPVLDRFGLINDLSALLNTGRVSIAQFVQVAASSAKEDEYVVWGAIDEGMSKLLACAREMSEDTLKSAKQLVVKMFEQTGAELGFAEQAGEDSQKMMLRSLVQARLARAGHQPTIDKFTQMFNDFLEKGTPIHPDIRLATFGVVARYGGKEGFDKLMNLRETTTFQEIERQTMVAMSQTPEESLLAQLFEYGFEKNKVRPQDQLYLFLGTGATHMGQQYAWKYFCEHIKEFLDKYGGANSSLFQRCLKFAGESFGNEKRAVEFQDFFCNCNVLSDTDRQTLARPIGQTVEAIRLNARLLESNRQIIENLLKQSNV | not soluble
MAAETKVQVSDPEAEFLNSKQETGYEWELFKENVRPLKRGRNVGILNHALKSHSDHQLRKNLIEKRRNLIEAIDEYEGDDPLSPWIECIKWVQEAFPPGGECSGLLVIYEQCVRKFWHSERYKDDLRYLKVWLEYAEHCADAEVIYKFLEVNEIGKTHAVYYIAYALHIEFKNKVKTANEIFNLGISRDAKPVEKLNDAYKKFMVRTMRRSNTADEEPKENNDLPSRSFGTLLSRGDNNARRQALGSSNPQAKKLKPNQSSKTPFAIYADAVSDTTSGNQPESDKSRPEFGSWLMLGGRAERNKENNSLPRKWASFKVPQKPIVRTVAAASASTFEVFVDEEECTEEEEEKKKNDETISSSSNVLPLNGGREIKKETELLRQNPLRHFPPNSFLR | not soluble
MAAKNAFYAQSGGVTAVINASAAGVIEAARKQSGKIGRIYAGRNGIIGALTEDLIDTGQESDAAISALRYTPSGAFGSCRYKLKSLEQNRREYERLIEVFKAHDIGYFFYNGGGDSADTCLKVSQLSGTLGYPIQAIHVPKTVDNDLPITDCCPGFGSVAKYIAVSTLEASFDVASMSATSTKVFVLEVMGRHAGWIAAAGGLASSPEREIPVVILFPEISFDKQKFLAKVDSCVKKFGYCSVVVSEGVKGDDGKFLSDQGVRDAFGHAQLGGVAPVVASMVKEGLGLKYHWGVADYLQRAARHIASKTDVEQAYAMGQAAVEFAVQGHNSVMPTIERISARPYQWKVGMAQLSQVANVEKMMPENFITEDGFGITDLCREYLAPLIEGEDYPPYKDGLPDYVRLKNVAVPKKLSGFTLLEHHHHHH | not soluble
MAALRYAGLDDTDSEDELPPGWEERTTKDGWVYYANHTEEKTQWEHPKTGKRKRVAGDLPYGWEQETDENGQVFFVDHINKRTTYLDPRLAFTVDDNPTKPTTRQRYDGSTTAMEILQGRDFTGKVVLVTGANSGIGFETAKSFALHGAHVILACRNLSRASEAVSRILEEWHKAKVEAMTLDLAVLRSVQHFAEAFKAKNVSLHVLVCNAGTFALPWGLTKDGLETTFQVNHLGHFYLVQLLQDVLCRSSPARVIVVSSESHRFTDINDSSGKLDLSRLSPPRSDYWAMLAYNRSKLCNILFSNELHRRLSPRGVTSNAVHPGNMMYSAIHRNSWVYKLLFTLARPFTKSMQQGAATTVYCAVAPELEGLGGMYFNNCCRCLPSEEAQSEETARALWELSERLIQDRLGSPSS | soluble
MAANEGNQPIPPEEEKEISSLLESIKIGKTSLKYRCFYLYDDKMTDLTEEQKETLKKLKLYQKEYYDYESKFEYELFLLRQKYHDLYGPIYDKRREALVGNGEAKIGTPNLPEFWLRALRNNNTVSHVIEDHDEEILVYLNDIRCDYIKKNKEKKEGFILSFYFATNPFFSNSVLTKTYHMKCVDCDNEPVLLHTEATVIDWYDNKNILKKNVVKKQHNKNSREVKTVQQTVNRDSFFHFFTSHKVPNSNVIKQLSKHEVAQLEMIIEGDYEVALTIKERIIPYAVDYYLGIIIESESNSIVSDVDSSYSSSENNSNYNSYESNNSAYNDENSNVDTNEYDDNEEEEEGAKSNEDPLTS | soluble
MAANSLPTNVASPVQTTTPTTDKRSIGFIDRQLGTNPAELPPLPYGYDALEKAIDAETMKLHHDKHHAAYVNNLNNALKKHPELQNSSVEALLRDLNSVPEDIRTTVRNNGGGHLNHTIFWQIMSPDGGGQPTGDIAQEINQTFGSFEEFKKQFNQAGGDRFGSGWVWLVRNPQGQLQVVSTPNQDNPIMEGSYPIMGNDVWEHAYYLRYQNRRPEYLNNWWNVVNWSEINRRTQASRQSNSHHHHHH | soluble
MAAQIPIVAATSTPAVARNSKKRPASPSHNSSGGGYGASKKKKLSASGFAQGVSIEAMNESKMASSELSSGPVEKAAKPLPFKDPNFVHSGHGGAVAGKKNRTWKNLKQILAAERALPWQLNDPNYFSIDAPPSFKPAKKYSDISGLLANYTDPQSKLRFSTVEEFSYIRRLPSDVVTGYLALRKATSIVP | not soluble
MAAQVEIEDQESVTNLDNGEIINPISDNAPNFSGDATILLREATFEHNLIKNCFLSGMGSFATETTIVTVRKILTQRLITTKAKFAVFKLFTEAMKRKNNGYANIRYGWYSGSKEEIDRVITYGFSNREIKKVENDVGSHGVGIHLVHHRYSLAAALVGEGDEEGIKNILLCRVILGKPEQIVTGSKQSYPSSNQFDSGVDNLENPRKYVIWSCNMNSYILPTYIVSFKSHLLRGLIGRARSPCVSFSVLMSILSKSLDAARMNLILTSYDDFRKRKLRREQLVRKIREVVGDNLLFKILKNQRR | soluble
MAAQVTLEDALSNVDLLEELPLPDQQPCIEPPPSSLLYQPNFNTNFEDRNAFVTGIARYIEQATVHSSMNEMLEEGQEYAVMLYTWRSCSRAIPQVKCNEQPNRVEIYEKTVEVLEPEVTKLMNFMYFQRNAIERFCGEVRRLCHAERRKDFVSEAYLITLGKFINMFAVLDELKNMKCSVKNDHSAYKRAAQFLRKMADPQSIQESQNLSMFLANHNKITQSLQQQLEVISGYEELLADIVNLCVDYYENRMYLTPSEKHMLLKVMGFGLYLMDGSVSNIYKLDAKKRINLSKIDKYFKQLQVVPLFGDMQIELARYIKTSAHYEENKSRWTCTSSGSSPQYNICEQMIQIREDHMRFISELARYSNSEVVTGSGRQEAQKTDAEYRKLFDLALQGLQLLSQWSAHVMEVYSWKLVHPTDKYSNKDCPDSAEEYERATRYNYTSEEKFALVEVIAMIKGLQVLMGRMESVFNHAIRHTVYAALQDFSQVTLREPLRQAIKKKKNVIQSVLQAIRKTVCDWETGHEPFNDPALRGEKDPKSGFDIKVPRRAVGPSSTQLYMVRTMLESLIADKSGSKKTLRSSLEGPTILDIEKFHRESFFYTHLINFSETLQQCCDLSQLWFREFFLELTMGRRIQFPIEMSMPWILTDHILETKEASMMEYVLYSLDLYNDSAHYALTRFNKQFLYDEIEAEVNLCFDQFVYKLADQIFAYYKVMAGSLLLDKRLRSECKNQGATIHLPPSNRYETLLKQRHVQLLGRSIDLNRLITQRVSAAMYKSLELAIGRFESEDLTSIVELDGLLEINRMTHKLLSRYLTLDGFDAMFREANHNVSAPYGRITLHVFWELNYDFLPNYCYNGSTNRFVRTVLPFSQEFQRDKQPNAQPQYLHGSKALNLAYSSIYGSYRNFVGPPHFQVICRLLGYQGIAVVMEELLKVVKSLLQGTILQYVKTLMEVMPKICRLPRHEYGSPGILEFFHHQLKDIVEYAELKTVCFQNLREVGNAILFCLLIEQSLSLEEVCDLLHAAPFQNILPRVHVKEGERLDAKMKRLESKYAPLHLVPLIERLGTPQQIAIAREGDLLTKERLCCGLSMFEVILTRIRSFLDDPIWRGPLPSNGVMHVDECVEFHRLWSAMQFVYCIPVGTHEFTVEQCFGDGLHWAGCMIIVLLGQQRRFAVLDFCYHLLKVQKHDGKDEIIKNVPLKKMVERIRKFQILNDEIITILDKYLKSGDGEGTPVEHVRCFQPPIHQSLASS | not soluble
MAARRAPISRRDRPAKPALSRRWIVDTAVALMRAEGLEKVTMRRLAQELDTGPASLYVYVANTAELHAAVLDALLGEVDLTGAGAEEDWREQLRAVLTSYTLVLFAHPQLARSALVARPSGENYLRLVERVLELLARSGAPGAQVAWGVDKLLQDATATAAEQATQEHDPASHEDWSATVRALRDADEATHPAIASHMPLLVAGSAHDRLRWSFDVLVNGITRTPVPGPARGAAG | soluble
MAASMARLWWPFLARQGLRSRGRCVCSQNPRRSFATEKRVRNLLYEHAREGYSELPYLDMESVCACPEKAARSLELRKGELRPADLPAIISTWQELRQLREQIRSLEAEKEAVAEAVRALLANQDSDQVQKDPQYQGLRARGREIRKQLTPLYPQETQLEEQLYQQALRLPNQTHPDTPVGDESQARVVRVVGEKPAFSFQPRGHLEIGEKLDIIRQKRLSHVSGHRSYYLRGAGALLQHGLVNFTLSKLVSRGFTPMTVPDLLRGAVFEGCGMTPNANPSQIYNIDPSRFEDLNLAGTAEVGLAGYFMDHSVAFRDLPVRMVCASTCYRAETDTGKEPWGLYRVHHFTKVEMFGVTGPGLEQSSQLLDEFLSLQVEILTELGLHFRVLDMPTQELGLPAYRKFDIEAWMPGRGRYGEVTSASNCTDFQSRRLYIMFETETGELQFAHTVNATACAVPRVLIALLESNQQKDGSVLVPAALQPYLGTDRITAPTHVPLQYIGPNQPQKPRLPGQSATR | soluble
MAATNHAQAIKKDTKDFITTALLQMLAKEKLQALTVSQICKRAGVSRMAFYRNFNGLEQILYEYYQPKIGAMFDTIRENPQFSAKFDSQLKFFNTFGDDIILSIDRGFEPIIQQIFKEEIEKFYFKDNDEHWTTFMSAGVYAIWRKWLLDGRQKPLKEIMDFFKQFDMIKGNV | not soluble
MADDPHVLAFLARVHQGRRDRVEDHLHEHFIRERNLHQRPQFPPLQLVPVQAEHEYEHPFPLVDVFKFSLQGDSVKTASSSWQGLQWKVKCSIYNLPGELLATRVSVDFFNLMDRVFKATVKYEMNEKFAAANEFAEVVIDSNHSTIVFPETGAFAPGRLVDGMLPTEIAVKIKLEHAEIVDQFSYNNQSWVMGTRWVRYGDECSVRMNFDVLKNLNPCHDKFFDDLREQVLSPKEARAFFDFASAIFNRSFMGLDLFHESVRNGLKFGFTTNWDSLNTVDSEFDFNSRTAFPGYQNVLYEQPSELTSISNRETAGMCQIFKLNLDPSDVTTRFQVASMNNVKSHTSQFTFYLENSPNGYLLIAGGCFQMESRQLVNLKLTLFDSGVSCRNIQTFRILHKEQSTIKVVIALLDDDKMEKMSRGKLLLNFQMHMNGTISNVVRNFEDQTKRIGDFAMPGLVTGYINCRDKKRIGVCKEHLANNSEHLNMLFFNTVFEDCGKNEITVNEDSDIVLDALDIIYHRSLAIFPAQINRVLDLAGYWLSATMHRFMEIAILHSTHISDSAKLELAAEHHFDIIKYVARHPRYASTYHLSLTDEEIMQVRIPADNEVDGGTGGRPRRVEDLMDLEEQQE | not soluble
MADEEKVTTEEQALADEWAAALAEAGDASQDDIDALMAQGGATPVAEPSTPRAPMEEFGASPKAPTISGLEGPNLDVILDIPVTISMEVGHTDISIRNLLQLNQGSVIELDRLAGEPLDVLVNGTLIAHGEVVVVNEKFGIRLTDVISPSERIKKLR | not soluble
